We go through seven molecules from US20150344570A1 (published 2015).

Residue numbers refer to the chain shown, from its start.

Sequences and labels used below:
T1: FcgRIIb extracellular domain, C-terminal His tag (human, UniProt P31994 43-217)
T1 construct: extracellular domain; Soluble analyte in Biacore; also called FcγRIIb; not shown: His tag at the C terminus
T1 sequence (looked up): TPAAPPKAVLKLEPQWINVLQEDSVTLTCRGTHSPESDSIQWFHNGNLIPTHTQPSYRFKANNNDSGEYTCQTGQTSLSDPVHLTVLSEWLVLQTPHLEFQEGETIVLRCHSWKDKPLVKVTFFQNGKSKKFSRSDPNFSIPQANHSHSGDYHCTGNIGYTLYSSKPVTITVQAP

T2: FcgRIIa H type extracellular domain, C-terminal His tag (human, UniProt P12318 34-217)
T2 construct: extracellular domain; Soluble analyte in Biacore; also called FcγRIIa H; FcγRIIa(H); not shown: His tag at the C terminus
T2 sequence (looked up): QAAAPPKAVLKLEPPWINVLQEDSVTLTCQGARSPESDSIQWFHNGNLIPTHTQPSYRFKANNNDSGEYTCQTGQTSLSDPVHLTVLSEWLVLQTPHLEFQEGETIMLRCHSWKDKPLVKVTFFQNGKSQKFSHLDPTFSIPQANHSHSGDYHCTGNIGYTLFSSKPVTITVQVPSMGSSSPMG

T3: FcgRIIa R type extracellular domain, C-terminal His tag (human, UniProt P12318 34-217)
T3 construct: extracellular domain; Soluble analyte in Biacore; also called FcγRIIa R; FcγRIIa(R); not shown: His tag at the C terminus
T3 sequence (looked up): T2 sequence (looked up) with H134R

B1: H240-Kn120/H240-Hl068/L73-k0 (antibody, human IgG1, kappa)
heavy 1: QDQLVQSGAEVKKPGASVKVSCKASGFNIKDTYIQWVRQAPGQGLEWMGRIDPLRKQTKYREKFEGRVTITADTSTNTAYMELSSLRSEDTAVYYCVRSGREFDYWGQGTLVTVSSASTKGPSVFPLAPSSKSTSGGTAALGCLVKDYFPEPVTVSWNSGALTSGVHTFPAVLQSSGLYSLSSVVTVPSSSLGTQTYICNVNHKPSNTKVDKKVEPKSCDKTHTCPPCPAPEYYWGPMVFLFPPKPKDTLMISRTPEVTCVVVDVSDEDPEVKFNWYVDGVEVHNAKTKPREEQYNATYRVVSVLTVLHQDWLNGKEYKCKVSNKDLPAPIEKTISKAKGQPREPQVCTLPPSRDELTKNQVSLWCLVKGFYPSDIAVEWESNGQPENNYKTTPPVLDSDGSFFLYSKLTVDKSRWQQGNVFSCSVMHEALHNHYTQKSLSLSP
heavy 2: QDQLVQSGAEVKKPGASVKVSCKASGFNIKDTYIQWVRQAPGQGLEWMGRIDPLRKQTKYREKFEGRVTITADTSTNTAYMELSSLRSEDTAVYYCVRSGREFDYWGQGTLVTVSSASTKGPSVFPLAPSSKSTSGGTAALGCLVKDYFPEPVTVSWNSGALTSGVHTFPAVLQSSGLYSLSSVVTVPSSSLGTQTYICNVNHKPSNTKVDKKVEPKSCDKTHTCPPCPAPELLGGPSVFLFPPKPKDTLMISRTPEVTCVVVDVSHEEPEVKFNWYVDGVEVHNAKTKPREEQYNSTYRVVSVLTVLHQDWLNGKEYKCKVSNDALPKPIEETISKAKGQPREPQVYTLPPSRCELTKNQVSLSCAVKGFYPSDIAVEWESNGQPENNYKTTPPVLDSDGSFFLVSKLTVDKSRWQQGNVFSCSVMHEALHNHYTQKSLSLSP
light: DIQMTQSPSSLSASVGDRVTITCRASQDIHKYIAWYQQKPGQAPRLLIQYTSTLQPGVPSRFSGSGSGTDYTFTISSLQPEDIATYYCLQYEQLRTFGGGTKVEIKRTVAAPSVFIFPPSDEQLKSGTASVVCLLNNFYPREAKVQWKVDNALQSGNSQESVTEQDSKDSTYSLSSTLTLSKADYEKHKVYACEVTHQGLSSPVTKSFNRGEC
notes: Heterodimerized (knobs-into-holes) anti-epiregulin IgG1 antibody; also called H240-Kn120/H240-HI068/L73-k0
B2: H240-Kn120/H240-Hl089/L73-k0 (antibody, human IgG1, kappa)
heavy 1: B1 heavy 1
heavy 2: B1 heavy 2 with G235T
light: B1 light
notes: also called H240-Kn120/H240-HI089/L73-k0
B3: H240-Kn120/H240-Hl085/L73-k0 (antibody, human IgG1, kappa)
heavy 1: B1 heavy 1
heavy 2: B1 heavy 2 with G235V
light: B1 light
notes: also called H240-Kn120/H240-HI085/L73-k0
B4: H240-Kn120/H240-Hl086/L73-k0 (antibody, human IgG1, kappa)
heavy 1: B1 heavy 1
heavy 2: B1 heavy 2 with G235I
light: B1 light
notes: also called H240-Kn120/H240-HI086/L73-k0
B5: H240-Kn120/H240-Hl073/L73-k0 (antibody, human IgG1, kappa)
heavy 1: B1 heavy 1
heavy 2: B1 heavy 2 with G235S
light: B1 light
notes: also called H240-Kn120/H240-HI073/L73-k0
B6: H240-Kn180/H240-Hl068/L73-k0 (antibody, human IgG1, kappa)
heavy 1: B1 heavy 1 with E293R
heavy 2: B1 heavy 2
light: B1 light
notes: also called H240-Kn180/H240-HI068/L73-k0
B7: H240-Kn179/H240-Hl068/L73-k0 (antibody, human IgG1, kappa)
heavy 1: B1 heavy 1 with E293K
heavy 2: B1 heavy 2
light: B1 light
notes: also called H240-Kn179/H240-HI068/L73-k0

T5 sequence (P08637 17-208): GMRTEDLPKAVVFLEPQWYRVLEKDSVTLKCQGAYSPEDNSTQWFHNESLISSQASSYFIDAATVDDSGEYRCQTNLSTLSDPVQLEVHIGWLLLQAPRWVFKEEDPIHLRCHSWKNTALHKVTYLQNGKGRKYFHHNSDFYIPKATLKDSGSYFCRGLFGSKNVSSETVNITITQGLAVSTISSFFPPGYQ

The target of one experiment is T1, FcgRIIb extracellular domain, …. The experiment is described as follows: SPR (Biacore); KD of H240-Kn120/H240-Hl068/L73-k0 divided by KD of the variant. The method, then:
(§1) Analysis of interaction between objective antibody and the FcγR was carried out using Biacore T100 (GE Healthcare), Biacore T200, Biacore A100, and Biacore 4000. HBS-EP+ (GE Healthcare) was used as the running buffer, and the measurement temperature was set to 25° C. Chips produced by immobilizing the antigen peptide by the amine coupling method to a Series S sensor Chip CM5 (GE Healthcare), chips produced by allowing preliminarily biotinylated antigen peptides to interact with and immobilize onto a Series S Sensor Chip SA (certified) (GE Healthcare), chips produced by immobilizing Protein L (ACTIGEN, BioVision) to Series S Sencor Chip CM5 (GE Healthcare), or chips produced by immobilizing Protein A/G (Thermo Scientific) to Series S Sencor Chip CM5 (GE Healthcare) were used. Antibodies of interest were captured onto these chips, and allowed to interact to each FcγR diluted with running buffer. To regenerate and repeatedly use the chip, the antibodies captured onto the chip were washed off by reacting 10 mM glycine-HCl, pH 1.5.
(SPR reads the build-up and loss of mass on a sensor chip optically.)
Turning to B1, the “relative KD” value was 1.

For the molecule B2, the “relative KD” value came out at 0.8.

As to B3, the “relative KD” value was 0.4.

With B4, the “relative KD” value worked out at 0.3.

In the case of B5, the “relative KD” value came to 0.7.

B6: the “relative KD” value was found to be 0.6.

With B7, the “relative KD” value was determined as 0.6.

The next experiment addresses T2, FcgRIIa H type extracellular domain, …. The experiment is described as above. Here is the method: as §1
With B1, the “relative KD” value came out at 1.

As for B2, the “relative KD” value was 1.

Consider B3, for which the “relative KD” value turned out to be 0.9.

In the case of B4, the “relative KD” value was 0.8.

For the molecule B5, the “relative KD” value is 2.

On to B6, for which the “relative KD” value turned out to be 1.2.

Take B7: the “relative KD” value was 1.

Another experiment deals with T3, FcgRIIa R type extracellular domain, …. The experiment is described as above. The method, then: as §1
Turning to B1, the “relative KD” value turned out to be 1.

B2: the “relative KD” value turned out to be 1.4.

On to B3, for which the “relative KD” value was found to be 1.1.

Regarding B4, the “relative KD” value worked out at 0.9.

As to B5, the “relative KD” value is 1.3.

Turning to B6, the “relative KD” value stood at 1.

For B7, the “relative KD” value is 0.8.

A further experiment deals with T4, FcgRIIIa V type extracellular domain, C-terminal His tag (human, UniProt P08637 17-208).
T4 construct: extracellular domain; Soluble analyte in Biacore; also called FcγRIIIa V; not shown: His tag at the C terminus
T4 sequence (P08637 17-208 F176V): as the sequence (P08637 17-208) above, with F160V counted along it
The experiment is described as above. The method, then:
as §1
On to B1, for which the “relative KD” value is 1.

Consider B2, for which the “relative KD” value was found to be 0.1.

Regarding B3, the “relative KD” value amounted to 0.1.

As to B4, the “relative KD” value turned out to be 0.

For B5, the “relative KD” value stood at 0.2.

As to B6, the “relative KD” value turned out to be 0.5.

For the molecule B7, the “relative KD” value is 0.4.

Another experiment concerns the target T5, FcgRIIIa F type extracellular domain, C-terminal His tag (human, UniProt P08637 17-208).
T5 construct: extracellular domain; Soluble analyte in Biacore; also called FcγRIIIa F; not shown: His tag at the C terminus
The experiment is described as above. Here is the method:
as §1
B1: the “relative KD” value was 1.

Take B2: the “relative KD” value was found to be 0.2.

As to B3, the “relative KD” value stood at 0.1.

B4: the “relative KD” value is 0.1.

As to B5, the “relative KD” value came out at 0.3.

B6: the “relative KD” value amounted to 0.7.

For the molecule B7, the “relative KD” value came out at 0.5.

Another experiment addresses T1, FcgRIIb extracellular domain, …. The description is as above. The source holds these as a separate data set. Here is the method:
(§2) H240-Kn179/H240-H1089/L73-k0, H240-Kn180/H240-Hl089/L73-k0, H240-Kn192/H240-Hl204/L73-k0, and H240-Kn193/H240-Hl204/L73-k0 were prepared by combining each of H240-Kn192 and H240-Kn193 as an H chain, L73-k0 as the L chain, and H240-Hl089 and H240-Hl204 as the other H chain according to the method described in Reference Example 1. The variants described above were assessed for their binding to FcγR according to the method described in Reference Example 8.
as §1
For the molecule B1, the “relative KD” value turned out to be 1.

As for B2, the “relative KD” value is 0.8.

With B6, the “relative KD” value was determined as 0.6.

As for B7, the “relative KD” value is 0.6.

Another experiment has as its target T2, FcgRIIa H type extracellular domain, …. The description is as above. This is another data set of the same source. The method, then:
as §2, §1
In the case of B1, the “relative KD” value was determined as 1.

For the molecule B2, the “relative KD” value stood at 1.

Take B6: the “relative KD” value amounted to 1.2.

For B7, the “relative KD” value was 1.

The target of the next experiment is T3, FcgRIIa R type extracellular domain, …. The experiment is described as above. The source holds these as a separate data set. The method, then: as §2, §1
Turning to B1, the “relative KD” value came to 1.

Regarding B2, the “relative KD” value amounted to 1.4.

Consider B6, for which the “relative KD” value is 1.

For the molecule B7, the “relative KD” value amounted to 0.8.

Another experiment has as its target T4, FcgRIIIa V type extracellular domain, …. The experiment is described as above. This is another data set of the same source. The method, then:
as §2, §1
As to B1, the “relative KD” value was 1.

Regarding B2, the “relative KD” value was found to be 0.1.

Regarding B6, the “relative KD” value turned out to be 0.5.

Turning to B7, the “relative KD” value was determined as 0.4.

In the next experiment the target is T5, FcgRIIIa F type extracellular domain, …. The description is as above. The source holds these as a separate data set. Here is the method: as §2, §1
For the molecule B1, the “relative KD” value came out at 1.

Turning to B2, the “relative KD” value was found to be 0.2.

On to B6, for which the “relative KD” value turned out to be 0.7.

On to B7, for which the “relative KD” value worked out at 0.5.
